Assay [1] relates to enriched dendritic cells from human blood (LDCs). As to the kind of experiment: Surface marker expression on blood-enriched dendritic cells (LDCs), flow cytometry. It counts as cell-based. To be noted: for activation molecule CD83 on DCs / co-stimulating molecule CD40 on DCs / induction of MHC type II molecules (HLA-DR) on DCs: ST peptide 0.1-10 μg/mL or LPS 100 ng/mL, FIG. 5 panel B. An excerpt:
(§1) The dendritic cells were obtained from healthy patients who had neither autoimmune diseases, nor inflammatory diseases nor allergies nor malignant tumors. These subjects had given their written consent for their blood to be used for scientific purposes. The peripheral blood mononuclear cells (PBMCs) were isolated by differential centrifugation in Ficoll-Paque Plus (Amersham Biosciences, Chalfont St. Giles, UK). The cellular fraction LDC (low-density cells) was obtained by overnight centrifugation in NycoPrepe™ solution. The cells present in this LDC fraction were HLA-DR positive in 98-100% of cases, with morphological characteristics typical of the DCs (Ng, et al. (2009). A novel population of human CD56+ human leukocyte antigen D-related (HLA-DR+) colonic lamina propria cells is associated with inflammation in ulcerative colitis. Clin. Exp. Immuno1.158, 205-218).
Half a million LDCs per milliliter were cultured in complete medium (Dutch modified RPMI 1640 (Sigma-Aldrich, Dorset, UK) containing 100 U/mL penicillin/streptomycin, 2 mM L-glutamine, […] gentamicin (Sigma-Aldrich) and fetal bovine serum at 10% (v/v) (TCS cellworks, Buckingham, UK)). These cultures were carried out in the presence of the ST peptide identified as SEQ ID NO: 1 purified at concentrations of 10 μg/mL, 1 μg/mL and 0.1 μg/mL, and of LPS (100 ng/mL) (Sigma-Aldrich, St. Louis, USA) as positive control. The results were compared with parallel cultures without ST peptide identified as SEQ ID NO: 1 nor added LPS, acting as negative controls.
For the various experiments, labeling of the cells with the various antibodies (Table 1) was carried out in PBS supplemented with 1 mM EDTA and sodium azide at 0.02% (w/v) (FACS buffer). Labeling was carried out for 20 minutes in ice, in the dark. The cells were then washed with FACS buffer and were fixed with paraformaldehyde at 1% (v/v) in saline solution, and stored at 4° C. until acquisition of data in the flow cytometer. The negative controls used were isotype-matched antibodies without specificity, labeled with the same fluorochrome, which were obtained from the same company (isotype controls).
(§2) The flow cytometry data were obtained in a FACSCalibur cytometer (BD Biosciences), and the data were analyzed with the WinList 5.0 software (Verity, Me., US). The proportion of samples positive for a particular marker was determined relative to isotype controls. For quantification by histograms, an analysis was performed with the WinList software, in which the histogram of isotype staining was subtracted from the histogram of specific staining using normalized superenhanced Dmax (SED) substraction (Bagwell, C. B. (2005). Hyperlog—a flexible log-like transform for negative, zero, and positive valued data. Cytometry. 64, 34-42).
(In general: In flow cytometry, cells or beads pass a laser one at a time.)

The test system is the same in assay [2]. The experiment in a line: Intracellular cytokine production in blood-enriched dendritic cells (LDCs), monensin 4 h, flow cytometry. It counts as cell-based. Conditions: ST peptide 0.1-10 μg/mL, 4 h monensin window, FIG. 6.
Text: as §1
Half a million LDCs per milliliter were cultured in complete medium (Dutch modified RPMI 1640 (Sigma-Aldrich, Dorset, UK) containing 100 U/mL penicillin/streptomycin, 2 mM L-glutamine, […] gentamicin (Sigma-Aldrich) and fetal bovine serum at 10% (v/v) (TCS cellworks, Buckingham, UK)). These cultures were carried out in the presence of the ST peptide identified as SEQ ID NO: 1 purified at concentrations of 10 μg/mL, 1 μg/mL and 0.1 μg/mL, and of LPS (100 ng/mL) (Sigma-Aldrich, St. Louis, USA) as positive control. […]
as §2
The DCs were cultured for 4 hours in the presence/absence of monensin. […] This protocol has been extensively validated by our colleagues (Hart et al., (2005) Characteristics of intestinal dendritic cells in inflammatory bowel diseases. Gastroenterology. 129, 50-65) and makes it possible to quantify changes in the natural production of cytokines by the DCs in the absence of external stimuli such as PMA and/or ionomycin. Using this approach, the intracellular content of each cytokine is not determined. Instead, the changes induced in the production of cytokines in a temporal window of 4 hours (incubation time with monensin) are determined independently of the initial content of cytokines.

The subject of assay [3] is dendritic cells from colon mucosa biopsies (intestinal DC). The experiment in a line: Intracellular cytokine production in dendritic cells from colon mucosa biopsies. It counts as cell-based, human. As for the experimental part: The DCs were cultured for 4 hours in the presence/absence of monensin. Then they were stained for the surface markers as described above. Next they were fixed with LeucopermA, and permeabilized with LeucopermB before adding the intracellular staining antibodies. After incubation, the DCs were washed in FACS buffer, were fixed and were acquired as described above. The analysis was performed by the SED substraction detailed above, where the histogram of each cytokine of the DCs that had not been incubated with monensin were subtracted from the histogram of each cytokine of the DCs that had been incubated in the […] of monensin. This protocol has been extensively validated by our colleagues (Hart et al., (2005) Characteristics of intestinal dendritic cells in inflammatory bowel diseases. Gastroenterology. 129, 50-65) and makes it possible to quantify changes in the natural production of cytokines by the DCs in the absence of external stimuli such as PMA and/or ionomycin. Using this approach, the intracellular content of each cytokine is not determined. Instead, the changes induced in the production of cytokines in a temporal window of 4 hours (incubation time with monensin) are determined independently of the initial content of cytokines.
Biopsies from the colon were obtained from three healthy patients, who had given their written consent to participate in this study (one woman and two men, age range 30-58 years). These patients had normal intestines, both macroscopically and histologically, and had been examined after reporting changes in intestinal transit or rectal bleeding. Once obtained, the biopsies were collected in complete medium cooled to 4° C. and were processed before the first hour counting from when they were obtained. The biopsies were incubated in Hanks's balanced salt solution (HBSS) (Gibco BRL, Paisley, Scotland, UK) containing 1 mM dithiothreitol (DTT) (Sigma-Aldrich) for 20 minutes. Next, they were incubated in a 1 mM solution of ethylenediaminetetraacetic acid (EDTA) in order to remove both the epithelial cells and the layer of mucus and its associated bacteria. […] The cellular suspensions of mononuclear cells of the lamina propria (200000 cells/mL) were incubated for 4 hours in the presence of the ST peptide identified as SEQ ID NO: 1 purified (10 μg/mL) and in the presence/absence, in its turn, of monensin, with their corresponding negative controls. The DCs of the lamina propria were identified by flow cytometry from the presence of the markers HLA-DR+ and CD3-CD14-CD16-CD19-CD34- (Hart et al. (2005) Characteristics of intestinal dendritic cells in inflammatory bowel diseases. Gastroenterology, 129, 50-65).
The remaining procedures followed in this example were the same as in section 1 of example 1.

The subject of assay [4] is T lymphocytes stimulated by enriched dendritic cells from blood (LDC). As to the kind of experiment: T lymphocytes stimulated with blood LDCs conditioned with ST peptide: homing markers and cytokines. It counts as cell-based, human. How it is done:
(§3) The T lymphocytes were obtained from peripheral blood mononuclear cells (PBMCs). The PBMCs, obtained from freshly drawn blood as described in example 1, were resuspended in MiniMACs buffer (PBS supplemented with bovine serum albumin 0.5% (w/v) and EDTA 2 mM). This suspension was enriched with T cells by removing the CD14 positive, CD19 positive and HLA-DR positive cells with immuno-magnetized beads (Miltenyi Biotech, Bisley, UK) following the manufacturer's instructions. A percentage of T cells of 94.91%±1.06 (mean±standard deviation) was obtained as the mean value of all the extractions/enrichments.
(§4) The T cells were labeled with 5-carboxyfluorescein diacetate succinimidyl ester (CFSE, Invitrogen Ltd, UK) according to the manufacturer's instructions. The T cells thus labeled (4×10^5 cells per well) were incubated for 5 days with DCs at 0, 1, 2 or 3% in microtiter plates with U-shaped bottom. The proliferating T cells were identified and quantified by flow cytometry as those that contained a small amount of CFSE (CFSE^low) (FIG. 8).
The remaining flow cytometry protocols were carried out as described in section 1 of example 1.

Assay [5] concerns T lymphocytes stimulated by enriched dendritic cells from colon biopsies (gut DC). The experiment in a line: T lymphocytes stimulated with intestinal mucosa DCs conditioned with ST peptide: homing markers and cytokines. In kind it is cell-based, human. Conditions: T cells stimulated with gut DCs pulsed with ST peptide, vs basal gut DC. How it is done:
as §3, §4
This example is the same as the preceding example, except in this case DCs isolated from intestinal mucosa were used.

Setting [6] is: ST peptide 0.1, 1 or 10 μg/mL, FIG. 5.
Where [7] appears, read: colon biopsies of healthy patients, ST peptide 10 μg/mL, 4 h, FIG. 7.
Where [8] appears, read: single donor with abnormal IL-12 production, FIG. 14.
Where [9] appears, read: T cells co-incubated with LDCs pre-incubated with ST peptide, FIGS. 10 and 11.
[10] abbreviates: T cells incubated 5 days with LDCs pre-incubated with ST peptide, FIG. 9.

As to “lipopolysaccharide [LPS, reference compound]”, in assay [1], the “activation molecule CD83 on DCs” value is reported as “did induce overexpression”, the “co-stimulating molecule CD40 on DCs” value is “did induce overexpression” and the “induction of MHC type II molecules (HLA-DR) on DCs” value is “did induce overexpression”.

B1: ST peptide: Peptide of 73 amino acids rich in serine and threonine, derived from protein D1 secreted by Lactobacillus plantarum; SEQ ID NO: 1 (protein, listed as Lactobacillus plantarum)
chain: GEVDGDSTTTTSTSTQTTQQTTTTQSSAQTSQTQAQPSQASQTQSSQTQTSKPAAQTTQTSSSTSNYHHHHHH
modifications: (1)..(73) ST peptide sequence
Consider B1, for which, in assay [1] (setting [6]), the “marker of migration to intestinal mucosa integrin β7 on DCs” value is given as “did not produce changes” and the “marker of migration to skin CLA on DCs” value is “did not produce changes”. In assay [1], the “activation molecule CD83 on DCs” value is given as “Nor did the peptide produce changes”, the “co-stimulating molecule CD40 on DCs” value is given as “Nor did the peptide produce changes” and the “induction of MHC type II molecules (HLA-DR) on DCs” value is “Nor did the peptide produce changes”. Also, in assay [2], the “production of intracellular TGFβ in LDCs” value is “did not affect”, the “synthesis of IL-6 in LDCs” value is on record as “reduction in the synthesis”, the “synthesis of IL-10 in LDCs” value is given as “increase in the synthesis” and the “synthesis of IL-12 in LDCs” value is “reduction in the synthesis”. Moreover, in assay [3] (setting [7]), the “production of IL-10 in intestinal DCs” value is reported as “increase in the production” and the “production of IL-12 in intestinal DCs” value was “absence of any increase in the production”. Moreover, in assay [3] (setting [8]), the “production of IL-10 in colon mucosa DCs of a donor with unusually high IL-12” value is on record as “increasing the production” and the “production of IL-12 in colon mucosa DCs of a donor with unusually high IL-12” value is reported as “completely cancelled the production”. Besides, in assay [4] (setting [9]), the “production of IFNγ in T cells” value was “decreased” and the “production of IL-17 in T cells” value was “decreased”. Moreover, in assay [4] (setting [10]), the “CLA (marker of migration to skin) in T lymphocytes” value is reported as “increased considerably” and the “integrin β7 (marker of migration to intestinal mucosa) in T lymphocytes” value was “decrease”. Besides, in assay [5] (FIG. 12), the “production of IL-10 in T cells” value was “even greater increase in the production” and the “production of TGFβ in T cells” value is “even greater increase”. Besides, in assay [5] (FIG. 13), the “lymphocytes expressing the marker of migration to skin (CLA)” value is recorded as “greater number of lymphocytes”.

Source of the values: patent publication US9340588B2, “Peptide secreted by Lactobacillus plantarum with immunomodulating function” (Imperial Innovations Limited, priority 2011, dated 2016).
